For one test, the target named is HLA-B*15:17. Briefly: IEDB peptide-MHC binding, purified MHC/competitive/fluorescence; filed as Kd, often an IC50 or EC50 that approximates it; ≥ and ≤ were set here for values at or beyond the usual limits of such assays.
The next test concerns the target HLA-B*51:01. In words: IEDB peptide-MHC binding, purified MHC/direct/fluorescence; filed as Kd, often an IC50 or EC50 that approximates it; ≥ and ≤ were set here for values at or beyond the usual limits of such assays.
The next test has as its target HLA-A*02:19. The test is described as above.
In the next test the target is HLA-A*02:11. The test is described as above.
The next test deals with HLA-A*68:02. The test is described as above.
Another test concerns the target HLA-A*03:01. The description is as above.
The target of another test is HLA-B*46:01. Described as above.
The target in another test is HLA-A*02:16. The description is as above.
The next test concerns the target HLA-A*02:03. The test is described as above.
The target in another test is HLA-B*57:01. The description is as above.
The target of test [1] is HLA-A*69:01. The test is described as above.
The target in a further test is HLA-B*27:03. The test is described as above.
A further test has as its target HLA-A*02:12. The test is described as above.
Another test has as its target HLA-B*15:01. The test is described as above.
In test [2] the target is HLA-A*02:01. The test is described as above.
A further test addresses HLA-B*18:01. Described as above.
A further test addresses HLA-B*39:01. The description is as above.
The target of another test is HLA-A*26:01. Described as above.
In test [3] the target is HLA-A*01:01. In words: IEDB peptide-MHC binding, purified MHC/competitive/radioactivity; filed as Kd, often an IC50 or EC50 that approximates it; ≥ and ≤ were set here for values at or beyond the usual limits of such assays. The note with it: source organism: Mammarenavirus machupoense.
Another test concerns the target HLA-A*30:01. Described as above. The conditions noted are these: source organism: Mammarenavirus machupoense.
The next test concerns the target HLA-A*32:01. Described as above. The conditions noted are these: source organism: Mammarenavirus machupoense.
The next test deals with HLA-A*29:02. Described as above. The conditions noted are these: source organism: Mammarenavirus machupoense.
For the next test, the target named is HLA-A*30:02. The description is as above. The conditions noted are these: source organism: Mammarenavirus machupoense.
In a further test the target is HLA-A*02:06. In words: IEDB peptide-MHC binding, purified MHC/competitive/fluorescence; filed as Kd, often an IC50 or EC50 that approximates it; ≥ and ≤ were set here for values at or beyond the usual limits of such assays. The conditions noted are these: source organism: Orthomarburgvirus marburgense.
For a further test, the target named is HLA-B*48:01. The test is described as above.
Test [4] addresses HLA-A*69:01. The description is as above. The conditions noted are these: source organism: Orthomarburgvirus marburgense.
Test [5] has as its target HLA-A*02:01. The test is described as above. The conditions noted are these: source organism: Orthomarburgvirus marburgense.
The next test deals with HLA-A*11:01. In words: IEDB peptide-MHC binding, purified MHC/direct/fluorescence; filed as Kd, often an IC50 or EC50 that approximates it; ≥ and ≤ were set here for values at or beyond the usual limits of such assays. The conditions noted are these: source organism: Marburg virus - Musoke, Kenya, 1980.
For test [6], the target named is HLA-A*01:01. Described as above. The note with it: source organism: Marburg virus - Musoke, Kenya, 1980.
A further test addresses HLA-B*27:05. Described as above. The note with it: source organism: Marburg virus - Musoke, Kenya, 1980.
Another test concerns the target HLA-B*58:01. Described as above. The note with it: source organism: Marburg virus - Musoke, Kenya, 1980.
The target in a further test is HLA-A*24:03. The test is described as above.
A further test deals with HLA-A*31:01. The test is described as above. The note with it: source organism: Marburg virus - Musoke, Kenya, 1980.
The target in a further test is HLA-B*40:01. The test is described as above. The note with it: source organism: Marburg virus - Musoke, Kenya, 1980.
The target in a further test is HLA-B*08:02. The description is as above. The conditions noted are these: source organism: Orthomarburgvirus marburgense.
The next test has as its target HLA-C*07:02. Described as above. The note with it: source organism: Entamoeba histolytica HM-1:IMSS.
Another test addresses HLA-B*07:02. In words: IEDB peptide-MHC binding, purified MHC/competitive/fluorescence; filed as Kd, often an IC50 or EC50 that approximates it; ≥ and ≤ were set here for values at or beyond the usual limits of such assays. The note with it: source organism: Influenza A virus (A/Fort Monmouth/1/1947-mouse adapted(H1N1)).
[7] abbreviates: source organism: Rickettsia sibirica 246.
Setting [8] is: source organism: Mammarenavirus machupoense.
[9] abbreviates: source organism: Orthomarburgvirus marburgense.
The mark [10] stands for this setting: source organism: Marburg virus - Musoke, Kenya, 1980.
[11] abbreviates: source organism: Encephalitozoon cuniculi GB-M1.
Where [12] appears, read: source organism: Salmonella enterica subsp. enterica serovar Typhimurium.

On to APVESMALF, for which the Kd is 15.1 µM with HLA-B*15:17 (setting [7]); at least 20 µM in the test with HLA-B*51:01 (setting [7]); at least 20 µM in the test with HLA-A*02:19 (setting [7]); at least 20 µM with HLA-A*02:11 (setting [7]); at least 20 µM with HLA-A*68:02 (setting [7]); at least 20 µM in the test with HLA-A*03:01 (setting [7]). Moreover, the Kd with HLA-B*46:01 (setting [7]), in the test with HLA-A*02:16 (setting [7]), with HLA-A*02:03 (setting [7]), with HLA-B*57:01 (setting [7]), with HLA-A*69:01 [1] (setting [7]) and with HLA-B*27:03 (setting [7]) was at least 20 µM each time. The equilibrium dissociation constant (Kd) in the test with HLA-A*02:12 (setting [7]), with HLA-B*15:01 (setting [7]), with HLA-A*02:01 [2] (setting [7]) and with HLA-B*18:01 (setting [7]) was at least 20 µM each time.

As for LITEQFLCY, the Kd with HLA-B*51:01 (setting [8]), with HLA-B*39:01 (setting [8]), with HLA-A*02:19 (setting [8]), with HLA-A*02:11 (setting [8]), with HLA-A*68:02 (setting [8]) and with HLA-A*02:16 (setting [8]) was at least 20 µM in each case. For the same sequence, the Kd with HLA-A*02:03 (setting [8]), in the test with HLA-A*26:01 (setting [8]), with HLA-B*57:01 (setting [8]), in the test with HLA-A*69:01 [1] (setting [8]), in the test with HLA-B*27:03 (setting [8]) and with HLA-A*02:12 (setting [8]) was at least 20 µM each time. The Kd with HLA-A*02:01 [2] (setting [8]) was at least 20 µM; with HLA-B*18:01 (setting [8]) it was at least 20 µM; with HLA-A*01:01 [3] it was 0.0647 µM; with HLA-A*30:01 it was 6.33 µM; with HLA-A*32:01 it was at least 25 µM; with HLA-A*29:02, 0.00132 µM. In the test with HLA-A*30:02, the dissociation constant (Kd) is 1.86 µM.

Take LYKTIVNIW: the Kd with HLA-A*02:06 was 0.11 µM; in the test with HLA-B*48:01 (setting [9]), at least 20 µM; with HLA-B*15:17 (setting [9]), at least 20 µM; with HLA-A*69:01 [4], 1.58 µM; with HLA-A*02:01 [5] it was 0.0509 µM; with HLA-A*11:01 it was at least 20 µM. Further, the Kd was at least 20 µM in the test with HLA-B*39:01 (setting [9]); at least 20 µM with HLA-A*01:01 [6]; at least 20 µM in the test with HLA-B*27:05; at least 20 µM with HLA-B*58:01; 0.16 µM with HLA-A*24:03 (setting [10]); at least 20 µM in the test with HLA-A*03:01 (setting [10]). The Kd with HLA-B*46:01 (setting [10]), with HLA-A*31:01, with HLA-B*40:01, in the test with HLA-A*26:01 (setting [9]), with HLA-B*57:01 (setting [10]) and with HLA-B*08:02 was at least 20 µM each time. Also, the dissociation constant (Kd) with HLA-B*15:01 (setting [10]) and with HLA-B*18:01 (setting [10]) was at least 20 µM each time.

With MPFDPSELV, the Kd was 0.074 µM with HLA-B*51:01 (setting [11]); at least 20 µM with HLA-A*02:19 (setting [11]); at least 20 µM in the test with HLA-A*02:11 (setting [11]); at least 20 µM in the test with HLA-A*24:03 (setting [11]); at least 20 µM in the test with HLA-A*03:01 (setting [11]); at least 20 µM with HLA-B*46:01 (setting [11]). Moreover, the Kd in the test with HLA-A*02:16 (setting [11]), with HLA-A*02:03 (setting [11]), with HLA-A*26:01 (setting [11]), with HLA-B*57:01 (setting [11]), in the test with HLA-B*27:03 (setting [11]) and with HLA-A*02:12 (setting [11]) was at least 20 µM throughout. Also, the equilibrium dissociation constant (Kd) with HLA-B*15:01 (setting [11]), with HLA-A*02:01 [2] (setting [11]) and in the test with HLA-B*18:01 (setting [11]) was at least 20 µM throughout.

For LAMLVLHQV, the Kd with HLA-B*51:01 (setting [12]) is 0.416 µM; with HLA-B*39:01 (setting [12]), at least 20 µM; with HLA-A*24:03 (setting [12]) it was at least 20 µM; with HLA-A*03:01 (setting [12]) it was at least 20 µM; with HLA-B*46:01 (setting [12]), at least 20 µM; in the test with HLA-A*26:01 (setting [12]), at least 20 µM. Moreover, the Kd with HLA-B*57:01 (setting [12]), with HLA-B*27:03 (setting [12]), in the test with HLA-B*15:01 (setting [12]) and with HLA-B*18:01 (setting [12]) was at least 20 µM in each case.

Regarding FQFTLHWEL, the equilibrium dissociation constant (Kd) in the test with HLA-B*48:01 (source organism: Entamoeba histolytica HM-1:IMSS) was found to be 0.726 µM; in the test with HLA-C*07:02, 2.05 µM.

For the sequence FPSSSYRRPV, the Kd with HLA-B*07:02 is 0.0016 µM.

On to GQAARDKHL, for which the Kd with HLA-B*48:01 (source organism: Burkholderia vietnamiensis G4) is at least 20 µM.

AQELVGHQL yielded a Kd with HLA-B*48:01 (source organism: Escherichia coli O139:H28 str. E24377A) of at least 20 µM.

These data come from the Immune Epitope Database (IEDB).
